Assay results as given in patent publication US20260008815A1, “CYCLIC PEPTIDE OR SALT THEREOF, AND USES THEREOF” (FUJIFILM Corporation, priority 2023, published 2026).
Bridge positions count the residues as written; N and C are the ends. Ends that are not written are not given here. COCH2 = acetyl group that carries the bridge

These substances were tested against T1, Recombinant Human FGFR2 alpha (IIIc) Fc Chimera Protein (Homo sapiens, UniProt P21802) (assay: ELISA binding affinity of enzymatically synthesized peptide to FGFR). Settings: ELISA luminescence signal at 10 nmol/L peptide, SEQ ID NO: 47 at 10 nmol/L standardized to 1; enzyme synthesis product.
T1 construct: Fc (chimera); purchased R&D systems 712-FR-050
T1 sequence (P21802 with tags, fused parts or gaps limits assumed): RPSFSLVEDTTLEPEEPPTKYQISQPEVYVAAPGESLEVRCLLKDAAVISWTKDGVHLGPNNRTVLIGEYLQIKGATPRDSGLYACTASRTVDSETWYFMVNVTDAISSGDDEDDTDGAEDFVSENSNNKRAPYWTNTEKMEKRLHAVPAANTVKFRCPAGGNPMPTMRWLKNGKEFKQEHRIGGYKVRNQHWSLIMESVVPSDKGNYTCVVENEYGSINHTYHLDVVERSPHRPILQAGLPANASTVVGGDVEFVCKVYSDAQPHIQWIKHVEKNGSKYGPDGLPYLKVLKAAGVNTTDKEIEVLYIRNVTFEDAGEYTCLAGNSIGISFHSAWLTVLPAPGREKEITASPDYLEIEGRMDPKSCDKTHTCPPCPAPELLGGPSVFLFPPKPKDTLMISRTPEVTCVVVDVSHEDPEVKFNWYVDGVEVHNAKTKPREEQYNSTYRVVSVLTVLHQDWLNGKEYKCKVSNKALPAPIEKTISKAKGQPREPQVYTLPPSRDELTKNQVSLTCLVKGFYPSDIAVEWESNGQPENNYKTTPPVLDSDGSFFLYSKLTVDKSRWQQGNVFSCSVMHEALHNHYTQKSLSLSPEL
In short: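 FGFR2 alpha (IIIc) Fc chimera (5 ng/well) was immobilized, and Myc-tagged peptide was bound 3 h at room temperature, then detected with anti-Myc antibody (2 h) and chemiluminescent substrate. Signal was corrected against FGFR-free wells. Score A–D was the luminescence at 10 nmol/L peptide, normalized to cyclic peptide SEQ ID NO: 47.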

Substance	Evaluation result of binding affinity to FGFR
161 (YCSENYLDPEQYQYFIYFK(COCH2)Y; thioether 2-19 (inferred)) [compound 161]	A (0.7 or more)
163 (YCDENYLDPEQYQYFIYFK(COCH2)Y; thioether 2-19 (inferred)) [compound 163]	A (0.7 or more)
164 (YCRENYLDPEQYQYFIYFK(COCH2)Y; thioether 2-19 (inferred)) [compound 164]	A (0.7 or more)
165 (YCHENYLDPEQYQYFIYFK(COCH2)Y; thioether 2-19 (inferred)) [compound 165]	A (0.7 or more)
166 (YCEGNYLDPEQYQYFIYFK(COCH2)Y; thioether 2-19 (inferred)) [compound 166]	A (0.7 or more)
167 (YCEPNYLDPEQYQYFIYFK(COCH2)Y; thioether 2-19 (inferred)) [compound 167]	A (0.7 or more)
169 (YCEINYLDPEQYQYFIYFK(COCH2)Y; thioether 2-19 (inferred)) [compound 169]	A (0.7 or more)
172 (YCEYNYLDPEQYQYFIYFK(COCH2)Y; thioether 2-19 (inferred)) [compound 172]	A (0.7 or more)
173 (YCEWNYLDPEQYQYFIYFK(COCH2)Y; thioether 2-19 (inferred)) [compound 173]	A (0.7 or more)
175 (YCEQNYLDPEQYQYFIYFK(COCH2)Y; thioether 2-19 (inferred)) [compound 175]	A (0.7 or more)
178 (YCEDNYLDPEQYQYFIYFK(COCH2)Y; thioether 2-19 (inferred)) [compound 178]	A (0.7 or more)
179 (YCERNYLDPEQYQYFIYFK(COCH2)Y; thioether 2-19 (inferred)) [compound 179]	A (0.7 or more)
181 (YCEEGYLDPEQYQYFIYFK(COCH2)Y; thioether 2-19 (inferred)) [compound 181]	B (0.5 or more and less than 0.7)
183 (YCEEQYLDPEQYQYFIYFK(COCH2)Y; thioether 2-19 (inferred)) [compound 183]	C (0.1 or more and less than 0.5)
185 (YCEETYLDPEQYQYFIYFK(COCH2)Y; thioether 2-19 (inferred)) [compound 185]	C (0.1 or more and less than 0.5)
186 (YCEENLLDPEQYQYFIYFK(COCH2)Y; thioether 2-19 (inferred)) [compound 186]	C (0.1 or more and less than 0.5)

Substance	Evaluation result of binding affinity to FGFR
190 (YCEENQLDPEQYQYFIYFK(COCH2)Y; thioether 2-19 (inferred)) [compound 190]	C (0.1 or more and less than 0.5)
193 (YCEENRLDPEQYQYFIYFK(COCH2)Y; thioether 2-19 (inferred)) [compound 193]	C (0.1 or more and less than 0.5)
194 (YCEENHLDPEQYQYFIYFK(COCH2)Y; thioether 2-19 (inferred)) [compound 194]	A (0.7 or more)
196 (YCEENYVDPEQYQYFIYFK(COCH2)Y; thioether 2-19 (inferred)) [compound 196]	A (0.7 or more)
197 (YCEENYFDPEQYQYFIYFK(COCH2)Y; thioether 2-19 (inferred)) [compound 197]	A (0.7 or more)
199 (YCEENYWDPEQYQYFIYFK(COCH2)Y; thioether 2-19 (inferred)) [compound 199]	A (0.7 or more)
200 (YCEENYNDPEQYQYFIYFK(COCH2)Y; thioether 2-19 (inferred)) [compound 200]	C (0.1 or more and less than 0.5)
201 (YCEENYQDPEQYQYFIYFK(COCH2)Y; thioether 2-19 (inferred)) [compound 201]	A (0.7 or more)
202 (YCEENYSDPEQYQYFIYFK(COCH2)Y; thioether 2-19 (inferred)) [compound 202]	B (0.5 or more and less than 0.7)
204 (YCEENYEDPEQYQYFIYFK(COCH2)Y; thioether 2-19 (inferred)) [compound 204]	C (0.1 or more and less than 0.5)
206 (YCEENYHDPEQYQYFIYFK(COCH2)Y; thioether 2-19 (inferred)) [compound 206]	A (0.7 or more)
209 (YCEENYLIPEQYQYFIYFK(COCH2)Y; thioether 2-19 (inferred)) [compound 209]	C (0.1 or more and less than 0.5)
210 (YCEENYLVPEQYQYFIYFK(COCH2)Y; thioether 2-19 (inferred)) [compound 210]	C (0.1 or more and less than 0.5)
211 (YCEENYLFPEQYQYFIYFK(COCH2)Y; thioether 2-19 (inferred)) [compound 211]	A (0.7 or more)
212 (YCEENYLYPEQYQYFIYFK(COCH2)Y; thioether 2-19 (inferred)) [compound 212]	A (0.7 or more)
213 (YCEENYLWPEQYQYFIYFK(COCH2)Y; thioether 2-19 (inferred)) [compound 213]	B (0.5 or more and less than 0.7)

Next, values leading:

Evaluation result of binding affinity to FGFR	Substance
A (0.7 or more)	159 (YCNENYLDPEQYQYFIYFK(COCH2)Y; thioether 2-19 (inferred)) [compound 159]
A (0.7 or more)	160 (YCQENYLDPEQYQYFIYFK(COCH2)Y; thioether 2-19 (inferred)) [compound 160]
A (0.7 or more)	162 (YCTENYLDPEQYQYFIYFK(COCH2)Y; thioether 2-19 (inferred)) [compound 162]
A (0.7 or more)	168 (YCELNYLDPEQYQYFIYFK(COCH2)Y; thioether 2-19 (inferred)) [compound 168]
A (0.7 or more)	170 (YCEVNYLDPEQYQYFIYFK(COCH2)Y; thioether 2-19 (inferred)) [compound 170]
B (0.5 or more and less than 0.7)	171 (YCEFNYLDPEQYQYFIYFK(COCH2)Y; thioether 2-19 (inferred)) [compound 171]
A (0.7 or more)	174 (YCENNYLDPEQYQYFIYFK(COCH2)Y; thioether 2-19 (inferred)) [compound 174]
A (0.7 or more)	176 (YCESNYLDPEQYQYFIYFK(COCH2)Y; thioether 2-19 (inferred)) [compound 176]
A (0.7 or more)	177 (YCETNYLDPEQYQYFIYFK(COCH2)Y; thioether 2-19 (inferred)) [compound 177]
A (0.7 or more)	180 (YCEHNYLDPEQYQYFIYFK(COCH2)Y; thioether 2-19 (inferred)) [compound 180]
C (0.1 or more and less than 0.5)	182 (YCEEWYLDPEQYQYFIYFK(COCH2)Y; thioether 2-19 (inferred)) [compound 182]
C (0.1 or more and less than 0.5)	184 (YCEESYLDPEQYQYFIYFK(COCH2)Y; thioether 2-19 (inferred)) [compound 184]
A (0.7 or more)	187 (YCEENFLDPEQYQYFIYFK(COCH2)Y; thioether 2-19 (inferred)) [compound 187]
A (0.7 or more)	188 (YCEENWLDPEQYQYFIYFK(COCH2)Y; thioether 2-19 (inferred)) [compound 188]
B (0.5 or more and less than 0.7)	189 (YCEENNLDPEQYQYFIYFK(COCH2)Y; thioether 2-19 (inferred)) [compound 189]
C (0.1 or more and less than 0.5)	191 (YCEENSLDPEQYQYFIYFK(COCH2)Y; thioether 2-19 (inferred)) [compound 191]
C (0.1 or more and less than 0.5)	192 (YCEENDLDPEQYQYFIYFK(COCH2)Y; thioether 2-19 (inferred)) [compound 192]
A (0.7 or more)	195 (YCEENYIDPEQYQYFIYFK(COCH2)Y; thioether 2-19 (inferred)) [compound 195]
A (0.7 or more)	198 (YCEENYYDPEQYQYFIYFK(COCH2)Y; thioether 2-19 (inferred)) [compound 198]
A (0.7 or more)	203 (YCEENYTDPEQYQYFIYFK(COCH2)Y; thioether 2-19 (inferred)) [compound 203]
A (0.7 or more)	205 (YCEENYRDPEQYQYFIYFK(COCH2)Y; thioether 2-19 (inferred)) [compound 205]
A (0.7 or more)	207 (YCEENYLGPEQYQYFIYFK(COCH2)Y; thioether 2-19 (inferred)) [compound 207]
C (0.1 or more and less than 0.5)	208 (YCEENYLLPEQYQYFIYFK(COCH2)Y; thioether 2-19 (inferred)) [compound 208]
A (0.7 or more)	214 (YCEENYLNPEQYQYFIYFK(COCH2)Y; thioether 2-19 (inferred)) [compound 214]
A (0.7 or more)	215 (YCEENYLQPEQYQYFIYFK(COCH2)Y; thioether 2-19 (inferred)) [compound 215]
